This is an account of results in paper PMC11417369, “DNA sequence and chromatin differentiate sequence-specific transcription factor binding in the human malaria parasite Plasmodium falciparum”.

The target in one data set is T1, AP2-HC D1 (Plasmodium falciparum, UniProt Q8IKR9 1316-1374).
T1 sequence: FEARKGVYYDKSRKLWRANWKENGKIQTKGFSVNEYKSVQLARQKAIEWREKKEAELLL
As to the kind of experiment: gcPBM; about 25 ug protein; PBS, 1% milk, 0.2 mg/ml BSA, salmon testes DNA, 0.03% Triton X-100. The following applies: tags: N-terminal GST (pGEX-4T-1), kept; label: surface-attached array probe.

For another data set, the target named is T2, AP2-LT D1 (Plasmodium falciparum, UniProt Q8IAM1 2520-2577).
T2 sequence: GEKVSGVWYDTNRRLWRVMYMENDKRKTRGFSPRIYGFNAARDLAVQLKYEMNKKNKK
Described as above. The note with it: tags: N-terminal GST (pGEX-4T-1), kept; label: surface-attached array probe.

A further data set deals with T3, PF3D7_0420300 D1 (Plasmodium falciparum, UniProt Q8I1N6 1956-2015).
T3 sequence: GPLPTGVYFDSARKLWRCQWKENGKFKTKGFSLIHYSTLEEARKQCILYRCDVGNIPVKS
The data set is described as above. The note with it: tags: N-terminal GST (pGEX-4T-1), kept; label: surface-attached array probe.

The target in another data set is T4, AP2-HC AP2 DBD (UniProt Q8IKR9 1320-1370).
T4 sequence: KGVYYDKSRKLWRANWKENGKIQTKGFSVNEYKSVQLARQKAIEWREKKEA
Briefly: EMSA; 1:1 stoichiometry; EMSA: 1x binding buffer (listed as 100 mM Tris-HCl pH 7.5, 500 mM KCl, 10 mM DTT), 5 mM MgCl2, 25 ng/ul poly dI-dC, 0.05% NP-40, protein in 25% glycerol, 20 min room temperature, 6% PAGE 0.5x TBE. The following applies: protein: recombinant; tags: N-terminal GST; label: biotin; blunt. (In general: In EMSA bound probe runs differently from free probe, usually more slowly.)

The target in the next data set is T5, AP2-I_D3 (AP2 domain 3) (UniProt Q8IJW6 775-824).
T5 chain: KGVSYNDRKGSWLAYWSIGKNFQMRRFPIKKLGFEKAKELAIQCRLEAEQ
Briefly: EMSA; EMSA: 1x binding buffer (listed as 100 mM Tris-HCl pH 7.5, 500 mM KCl, 10 mM DTT), 5 mM MgCl2, 25 ng/ul poly dI-dC, 0.05% NP-40, protein in 25% glycerol, 20 min room temperature, 6% PAGE 0.5x TBE. The following applies: protein: recombinant; tags: N-terminal GST; label: biotin; blunt.

In another data set the target is T6, HDP1 homeodomain-like (Plasmodium falciparum, UniProt Q8IKH4 2990-3078).
T6 sequence: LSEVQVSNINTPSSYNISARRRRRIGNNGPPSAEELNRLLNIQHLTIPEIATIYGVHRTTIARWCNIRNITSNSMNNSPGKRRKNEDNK
As to the kind of experiment: gcPBM; about 25 ug protein; PBS, 1% milk, 0.2 mg/ml BSA, salmon testes DNA, 0.03% Triton X-100. The note with it: tags: N-terminal GST (pGEX-4T-1), kept; chain copies: 2; label: surface-attached array probe.

B1: CACACA_negctrl_site694 (dsDNA)
DNA 1: TAATTTATTACCATGTAATTATTACGAATATAGGAT
DNA 2: ATCCTATATTCGTAATAATTACATGGTAATAAATTA
B1: the binding signal with AP2-HC D1 was 9.4 ln median PBM intensity, better of two orientations; in the data set with AP2-LT D1 it was 8.68 ln median PBM intensity, better of two orientations.

B2: CACACA_site7148 (dsDNA)
DNA 1: CATATTCCCCCCCACACACACACACGCATACATACC
DNA 2: GGTATGTATGCGTGTGTGTGTGTGGGGGGGAATATG
With B2, the binding signal with PF3D7_0420300 D1 was 11 ln median PBM intensity, better of two orientations; with AP2-LT D1, 11 ln median PBM intensity, better of two orientations. In addition, the binding result with AP2-HC AP2 DBD is reported as “binds”.

B3: CACACA_site2306 (dsDNA)
DNA 1: CCCCCCCACAGACACACACACATACATACCACATAT
DNA 2: ATATGTGGTATGTATGTGTGTGTGTCTGTGGGGGGG
On to B3, for which the binding signal with AP2-HC D1 is 11.9 ln median PBM intensity, better of two orientations; with PF3D7_0420300 D1 it was 11 ln median PBM intensity, better of two orientations; in the data set with AP2-LT D1 it was 11 ln median PBM intensity, better of two orientations.

B4: CACACA_negctrl_site1292 (dsDNA)
DNA 1: TATATTTAGAATACAATCTTAAAGTTGAAATAAAAT
DNA 2: ATTTTATTTCAACTTTAAGATTGTATTCTAAATATA
As for B4, the binding signal with AP2-HC D1 is 9.26 ln median PBM intensity, better of two orientations; in the data set with AP2-LT D1, 8.65 ln median PBM intensity, better of two orientations.

B5: CACACA_negctrl_site640 (dsDNA)
DNA 1: GTATATATATTTCTTTAATAATTAAATTATAAATAT
DNA 2: ATATTTATAATTTAATTATTAAAGAAATATATATAC
With B5, the binding signal in the data set with AP2-HC D1 was 9.37 ln median PBM intensity, better of two orientations; in the data set with AP2-LT D1, 8.59 ln median PBM intensity, better of two orientations.

B6: CACACA_site2428 (dsDNA)
DNA 1: TACACAAACAAACACACACACACACCCCCACAAAAA
DNA 2: TTTTTGTGGGGGTGTGTGTGTGTGTTTGTTTGTGTA
For the molecule B6, the binding signal with AP2-HC D1 is 12.1 ln median PBM intensity, better of two orientations; with PF3D7_0420300 D1, 10.5 ln median PBM intensity, better of two orientations; in the data set with AP2-LT D1, 10.7 ln median PBM intensity, better of two orientations.

B7: CACACA_site7194 (dsDNA)
DNA 1: CAAACAAACGAACACACACACACACGCAAAAATGAT
DNA 2: ATCATTTTTGCGTGTGTGTGTGTGTTCGTTTGTTTG
In the case of B7, the binding signal in the data set with AP2-HC D1 is 11.8 ln median PBM intensity, better of two orientations; with PF3D7_0420300 D1, 10.4 ln median PBM intensity, better of two orientations; with AP2-LT D1, 10.8 ln median PBM intensity, better of two orientations.

B8: CACACA_site8010 (dsDNA)
DNA 1: CACCCCCACAGACACACACACACACCGATATATATA
DNA 2: TATATATATCGGTGTGTGTGTGTGTCTGTGGGGGTG
Turning to B8, the binding signal was 11.8 ln median PBM intensity, better of two orientations in the data set with AP2-HC D1; 10.5 ln median PBM intensity, better of two orientations with PF3D7_0420300 D1; 10.8 ln median PBM intensity, better of two orientations in the data set with AP2-LT D1.

B9: CACACA_site2859 (dsDNA)
DNA 1: AAAAAAAAAAAACACACACACACACCCACCCATACA
DNA 2: TGTATGGGTGGGTGTGTGTGTGTGTTTTTTTTTTTT
Turning to B9, the binding signal with AP2-HC D1 was 11.8 ln median PBM intensity, better of two orientations; with PF3D7_0420300 D1, 10.7 ln median PBM intensity, better of two orientations; in the data set with AP2-LT D1, 10.8 ln median PBM intensity, better of two orientations.

B10: CACACA_negctrl_site669 (dsDNA)
DNA 1: TAACTTTTATCCTTAATTCATATATAAGATTAAATC
DNA 2: GATTTAATCTTATATATGAATTAAGGATAAAAGTTA
Regarding B10, the binding signal is 9.41 ln median PBM intensity, better of two orientations with AP2-HC D1; 8.85 ln median PBM intensity, better of two orientations with PF3D7_0420300 D1; 8.63 ln median PBM intensity, better of two orientations in the data set with AP2-LT D1.

B11: CACACA_negctrl_site261 (dsDNA)
DNA 1: AACCTAAGCATTCTTCAAATTATATATGTAAAATGA
DNA 2: TCATTTTACATATATAATTTGAAGAATGCTTAGGTT
Regarding B11, the binding signal with AP2-HC D1 is 9.41 ln median PBM intensity, better of two orientations; with AP2-LT D1, 8.81 ln median PBM intensity, better of two orientations.

B12: CACACA_site7633 (dsDNA)
DNA 1: TGGGAATAACGACACACACACACACGGATATAAATA
DNA 2: TATTTATATCCGTGTGTGTGTGTGTCGTTATTCCCA
B12: the binding signal with AP2-HC D1 is 11.9 ln median PBM intensity, better of two orientations; in the data set with PF3D7_0420300 D1, 10.4 ln median PBM intensity, better of two orientations; in the data set with AP2-LT D1 it was 10.7 ln median PBM intensity, better of two orientations.

B13: CACACA_negctrl_site1788 (dsDNA)
DNA 1: TTTTATAAAATATAATATAATAATATATGTATAATA
DNA 2: TATTATACATATATTATTATATTATATTTTATAAAA
For B13, the binding signal was 9.41 ln median PBM intensity, better of two orientations in the data set with AP2-HC D1 and 8.62 ln median PBM intensity, better of two orientations with AP2-LT D1.

B14: GTGCAC_site10341 (dsDNA)
DNA 1: GATAAAATGAGACCAGTGCATTATTAGTTGTACACC
DNA 2: GGTGTACAACTAATAATGCACTGGTCTCATTTTATC
For B14, the binding result with AP2-I_D3 (AP2 domain 3) is “binds”. Also, the binding signal with HDP1 homeodomain-like is 9.81 ln median PBM intensity, better of two orientations.

B15: CACACA_negctrl_site1720 (dsDNA)
DNA 1: TTCTCAAAATTAAAATAACAGATTAACGAACTAACG
DNA 2: CGTTAGTTCGTTAATCTGTTATTTTAATTTTGAGAA
Take B15: the binding signal was 9.4 ln median PBM intensity, better of two orientations in the data set with AP2-HC D1 and 8.7 ln median PBM intensity, better of two orientations with AP2-LT D1.

B16: CACACA_negctrl_site1739 (dsDNA)
DNA 1: ACGATTCAAAGGGAATATAAAATATTATTATCTATA
DNA 2: TATAGATAATAATATTTTATATTCCCTTTGAATCGT
For the molecule B16, the binding signal in the data set with AP2-HC D1 is 9.48 ln median PBM intensity, better of two orientations; with AP2-LT D1, 8.83 ln median PBM intensity, better of two orientations.
